Measured values reported in paper PMC2774616, “Cellular Assays for High-Throughput Screening for Modulators of Trk Receptor Tyrosine Kinases” (Current Chemical Genomics, 2008).

Assays:
Format in all cases: cell-based
[1] = test system: thapsigargin-induced NFAT-bla reporter activity; test: Effect of RNAi oligos on thapsigargin-induced NFAT-bla reporter activity in TrkA-, TrkB- and TrkC-NFAT-bla CHO-K1 cells; conditions: all three cell lines, 50 nM RNAi oligo, Thapsigargin 30 nM 5 h
Method: Cells were plated in 96-well assay plates (Corning, catalog number 3603) at 6,000 cells/well in 100 µL growth medium (DMEM containing 10% dialyzed FBS, 0.1 mM NEAA and 25 mM HEPES), and incubated in 37°C, 5% CO2 incubator overnight. Next morning, Stealth™ RNAi (Invitrogen, catalog number 10620318) and Lipofectamine^TM RNAiMAX (Invitrogen, catalog number 13778) complexes were prepared according to the manufacturer’s protocol and added to the wells (50 nM RNAi oligos and 1µL RNAiMAX/well). RNAi oligo targeting for beta-lactamase was used as the positive control and a random-sequenced oligo with 48% GC content (Med GC) as the negative control. A set of 2 oligos for each Trk was used:
Cells were incubated with RNAi oligos at 37°C for 32 hours, followed by a medium change. Cells were incubated in Assay Medium at 37 °C for 16 hours and then stimulated with respective ligands (NGF, 0.77 nM; BDNF, 1 nM; NT-3, 0.72 nM and Thapsigargin, 30 nM) for 5 hours before beta-lactamase assay was performed as described above.

human TrkA = target: T1, human TrkA (Homo sapiens, UniProt P04629); test: Neurotrophin dose response, beta-lactamase reporter assay in TrkA-NFAT-bla CHO-K1 cells; conditions: for EC50: 5 h stimulation, 0.1% DMSO, * values may not be accurate, curves did not reach saturation; for response of TrkA-NFAT-bla CHO-K1 cells (in words): up to 50 nM
T1 construct: Full length human TRKA, TRKB and TRKC cDNAs were synthesized by Blue Heron Biotechnology; expressed in transfected cells
T1 sequence (P04629 33-796): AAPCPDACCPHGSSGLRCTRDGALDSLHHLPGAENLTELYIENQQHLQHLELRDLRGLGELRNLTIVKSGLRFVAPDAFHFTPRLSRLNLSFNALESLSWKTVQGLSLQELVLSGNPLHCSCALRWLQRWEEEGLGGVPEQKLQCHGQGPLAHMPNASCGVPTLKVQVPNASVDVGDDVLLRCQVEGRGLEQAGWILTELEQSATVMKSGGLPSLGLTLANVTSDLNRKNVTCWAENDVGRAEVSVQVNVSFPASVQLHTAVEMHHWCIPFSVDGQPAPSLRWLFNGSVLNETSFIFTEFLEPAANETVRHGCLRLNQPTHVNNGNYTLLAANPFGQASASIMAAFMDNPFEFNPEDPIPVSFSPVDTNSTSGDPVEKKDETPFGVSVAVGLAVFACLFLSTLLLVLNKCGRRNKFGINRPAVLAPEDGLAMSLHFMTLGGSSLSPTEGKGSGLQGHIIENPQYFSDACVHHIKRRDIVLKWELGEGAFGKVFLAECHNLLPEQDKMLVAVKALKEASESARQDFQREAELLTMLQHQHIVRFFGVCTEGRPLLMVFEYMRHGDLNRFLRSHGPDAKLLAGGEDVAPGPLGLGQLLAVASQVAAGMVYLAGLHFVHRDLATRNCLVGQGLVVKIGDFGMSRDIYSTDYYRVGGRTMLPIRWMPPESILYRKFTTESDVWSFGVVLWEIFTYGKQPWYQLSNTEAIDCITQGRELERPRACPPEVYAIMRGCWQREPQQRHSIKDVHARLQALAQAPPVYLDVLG
Excerpt: (§1) NFAT beta-lactamase reporter line NFAT-bla CHO-K1 cells (Invitrogen, Carlsbad, CA, catalog number K1078) were transfected using Lipofectamine™ LTX transfection reagent (Invitrogen, Carlsbad, CA) with pcDNA6-TRKA, pcDNA6-TRKB and pcDNA6-TRKC and selected for blasticidin-resistance. Blasticidin-resistant TrkA transfected cells were stimulated with NGF (Invitrogen, catalog number 13257-019), TrkB transfected cells with BDNF (Invitrogen, catalog number PHC7074) and TrkC transfected cells with NT-3 (Invitrogen, catalog number PHC7034) for 5 hours before neurotrophin stimulated beta-lactamase expressing cells were collected by FACS as single cells onto 96-well plates. The survived clones that responded to the respective ligand were selected and expanded. The clone with the best response to each ligand was further tested in a 384-well format for the dose response of neurotrophins and inhibitors and in a 96-well format for RNAi knock-down.
(§2) Cells in a sub-confluency state (or cryopreserved cells) were resuspended in Assay Medium (DMEM with GlutaMAX™ (Invitrogen, catalog number 10569) supplemented with 0.1% dialyzed FBS, 0.1 mM NEAA, 25 mM HEPES, 100 U/mL Penicillin and 100 µg/mL Streptomycin) and plated in a 384-well assay plate (Corning, Lowell, MA, catalog number 3712) at 10,000 cells (32 μL) per well. 32 μL of Assay Medium without cells were plated in Cell-free Control wells on the same plate. 4 µL 1% DMSO was added to each well to reach final DMSO concentration of 0.1% to mimic the screening situation where compounds dissolved in DMSO are added to test wells. Cells were then stimulated with 4 µL/well 10 x ligands (NGF, BDNF, NT-4 (Invitrogen, catalog number PHC7024), NT-3 or Thapsigargin (Sigma, St. Louis, MO)) over the indicated concentration range (1 pM ~ 50000 pM) for 5 hours before adding 8 µL/well 6X LiveBLAzer™-FRET B/G Substrate mixture (Invitrogen, catalog number K1096) for 2 hours. Fluorescence intensity at excitation 406 nm and emission 460 nm and 530 nm were obtained using Tecan Safire^2 fluorescence plate reader (Tecan, Durham, NC) (Table 1). After subtracting the average fluorescence intensity from the Cell-free Control wells, the 460nm/530nm emission ratio was calculated. Response Ratio is a measurement of the assay window and is calculated as the 460nm/530nm Emission Ratio of the stimulated wells divided by the 460nm/530nm Emission Ratio of the unstimulated wells. Response Ratios were plotted against test ligand concentrations in log scale and then analyzed using Prism software (GraphPad Software, Inc. San Diego, CA). Sigmoidal dose-response equation with varying slope was used to fit the data and generate EC50 values. Z’-factor values were calculated as: Z’-factor = 1 - [(3 x stdevunstim + 3 x stdevmaxstim) / (avgmaxstim – avgunstim)].

human TrkC = target: T2, human TrkC (Homo sapiens, UniProt Q16288); test: Neurotrophin dose response, beta-lactamase reporter assay in TrkC-NFAT-bla CHO-K1 cells; conditions: for EC50: 5 h stimulation, 0.1% DMSO, * values may not be accurate, curves did not reach saturation; for response of TrkC-NFAT-bla CHO-K1 cells (in words): up to 50 nM
T2 construct: Full length human TRKA, TRKB and TRKC cDNAs were synthesized by Blue Heron Biotechnology; expressed in transfected cells
T2 sequence (Q16288 32-825 isoform Q16288-3 limits assumed): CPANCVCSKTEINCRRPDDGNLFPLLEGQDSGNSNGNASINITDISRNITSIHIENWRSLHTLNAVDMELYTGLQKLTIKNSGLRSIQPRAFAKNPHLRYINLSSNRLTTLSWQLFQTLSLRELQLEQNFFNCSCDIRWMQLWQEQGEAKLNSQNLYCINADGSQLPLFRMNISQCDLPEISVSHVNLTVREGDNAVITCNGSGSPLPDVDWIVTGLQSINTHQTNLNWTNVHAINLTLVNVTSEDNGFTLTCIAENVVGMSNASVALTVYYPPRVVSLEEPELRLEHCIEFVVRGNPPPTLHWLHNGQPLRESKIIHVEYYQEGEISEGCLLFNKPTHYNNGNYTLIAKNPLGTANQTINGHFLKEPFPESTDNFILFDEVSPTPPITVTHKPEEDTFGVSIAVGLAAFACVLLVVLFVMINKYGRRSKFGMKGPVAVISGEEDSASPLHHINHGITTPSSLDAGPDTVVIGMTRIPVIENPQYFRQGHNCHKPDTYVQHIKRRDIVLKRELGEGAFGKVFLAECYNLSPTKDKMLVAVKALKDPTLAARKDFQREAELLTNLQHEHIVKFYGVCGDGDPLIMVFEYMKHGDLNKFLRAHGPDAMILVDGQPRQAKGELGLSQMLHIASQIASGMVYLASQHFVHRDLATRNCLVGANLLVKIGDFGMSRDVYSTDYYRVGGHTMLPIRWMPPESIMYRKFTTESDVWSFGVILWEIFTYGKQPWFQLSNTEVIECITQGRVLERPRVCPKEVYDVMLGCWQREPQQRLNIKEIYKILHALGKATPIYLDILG
Excerpt: as §1, §2

human TrkB = target: T3, human TrkB (Homo sapiens, UniProt Q16620); test: Neurotrophin dose response, beta-lactamase reporter assay in TrkB-NFAT-bla CHO-K1 cells; conditions: for maximum response ratio, TrkB-NFAT-bla CHO-K1: 460nm/530nm ratio stimulated vs unstimulated; for EC50: 5 h stimulation, 0.1% DMSO
T3 construct: Full length human TRKA, TRKB and TRKC cDNAs were synthesized by Blue Heron Biotechnology; expressed in transfected cells
T3 sequence (Q16620 32-838 isoform Q16620-4 limits assumed): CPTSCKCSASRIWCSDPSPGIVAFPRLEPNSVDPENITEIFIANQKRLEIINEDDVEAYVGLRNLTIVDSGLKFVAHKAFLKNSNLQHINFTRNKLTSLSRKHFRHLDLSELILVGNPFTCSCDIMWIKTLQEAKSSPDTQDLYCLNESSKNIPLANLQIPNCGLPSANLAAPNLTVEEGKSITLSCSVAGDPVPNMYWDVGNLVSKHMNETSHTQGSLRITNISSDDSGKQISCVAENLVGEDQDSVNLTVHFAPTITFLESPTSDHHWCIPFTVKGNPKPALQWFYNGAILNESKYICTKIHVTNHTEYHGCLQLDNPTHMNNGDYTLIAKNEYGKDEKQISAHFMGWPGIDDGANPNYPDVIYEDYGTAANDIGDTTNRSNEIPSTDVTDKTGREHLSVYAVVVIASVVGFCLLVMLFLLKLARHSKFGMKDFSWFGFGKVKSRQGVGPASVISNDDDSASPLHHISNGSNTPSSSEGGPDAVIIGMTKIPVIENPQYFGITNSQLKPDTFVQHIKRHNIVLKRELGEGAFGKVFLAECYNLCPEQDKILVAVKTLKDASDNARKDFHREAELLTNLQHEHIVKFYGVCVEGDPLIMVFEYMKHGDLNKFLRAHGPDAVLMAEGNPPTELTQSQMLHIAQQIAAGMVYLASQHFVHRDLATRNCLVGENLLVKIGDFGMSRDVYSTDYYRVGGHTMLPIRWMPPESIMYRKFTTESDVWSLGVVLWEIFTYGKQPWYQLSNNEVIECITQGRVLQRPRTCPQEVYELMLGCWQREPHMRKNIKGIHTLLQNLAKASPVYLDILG
Excerpt: as §1, §2

[2] = used for stimulation in inhibitor assay

| Molecule | inhibitory effect on thapsigargin-induced NFAT-bla reporter activity [1] | effect on thapsigargin-induced NFAT-bla reporter activity (in words) [1] | EC50 (human TrkA) [nM] | response of TrkA-NFAT-bla CHO-K1 cells (in words) (human TrkA) | EC50 (human TrkC) [nM] | response of TrkC-NFAT-bla CHO-K1 cells (in words) (human TrkC) | maximum response ratio, TrkB-NFAT-bla CHO-K1 (human TrkB) | EC50 (human TrkB) [nM] | EC80 concentration, TrkB cells (human TrkB; [2]) [nM] | maximum response ratio / response over baseline, TrkA-NFAT-bla CHO-K1 (human TrkA; 460nm/530nm ratio stimulated vs unstimulated) [fold] | EC50 (human TrkA; listed as NGF 2.5s) [nM] | EC80 concentration, TrkA cells (human TrkA; [2]) [nM] | response of TrkB-NFAT-bla CHO-K1 cells (in words) (human TrkB; up to 50 nM) |
| --- | --- | --- | --- | --- | --- | --- | --- | --- | --- | --- | --- | --- | --- |
| TRKB2: Stealth RNAi oligo for TrkB, ACACCACGAACAGAAGUAAUGAAAU (Stealth RNAi oligo, modification pattern not given here) | about 50% |  |  |  |  |  |  |  |  |  |  |  |  |
| TRKC2: Stealth RNAi oligo for TrkC, CCAGACCAAUCUGAACUGGACCAAU (Stealth RNAi oligo, modification pattern not given here) |  | did not inhibit |  |  |  |  |  |  |  |  |  |  |  |
| BDNF: brain-derived neurotrophic factor, neurotrophin, ligand of TrkB (protein, UniProt P23560 19-247, looked up) Neurotrophic factor BDNF …: APMKEANIRGQGGLAYPGVRTHGTLESVNGPKAGSRGLTSLADTFEHVIEELLDEDQKVRPNEENNKDADLYTSRVMLSSQVPLEPPLLFLLEEYKNYLDAANMSMRVRRHSDPARRGELSVCDSISEWVTAADKKTAVDMSGGTVTVLEKVPVSKGQLKQYFYETKCNPMGYTKEGCRGIDKRHWNSQCRTTQSYVRALTMDSKKRIGWRFIRIDTSCVCTLTIKRGR |  |  | > 50 | minimal effect | 28 | only at the highest concentration (50 nM) tested | 14 | 0.39 | 1 |  |  |  |  |
| NGF: nerve growth factor, neurotrophin, preferred ligand of TrkA (protein, UniProt P01139 122-241, looked up) Beta-nerve growth factor: SSTHPVFHMGEFSVCDSVSVWVGDKTTATDIKGKEVTVLAEVNINNSVFRQYFFETKCRASNPVESGCRGIDSKHWNSYCTTTHTFVKALTTDEKQAAWRFIRIDTACVCVLSRKATRRG |  |  | 0.044 |  | > 50 | did not show any response |  | > 50 |  | 5.5 | 0.04 | 0.77 | did not respond at all |
| NT-4: neurotrophin 4, ligand of TrkB (protein, UniProt P34130 81-210, looked up) Neurotrophin-4: GVSETAPASRRGELAVCDAVSGWVTDRRTAVDLRGREVEVLGEVPAAGGSPLRQYFFETRCKADNAEEGGPGAGGGGCRGVDRRHWVSECKAKQSYVRALTADAQGRVGWRWIRIDTACVCTLLSRTGRA |  |  | > 50 | minimal effect | > 50 | did not show any response | 13 | 3.5 |  |  |  |  |  |
